Measured values published in the DeepSol protein solubility set.

Test: soluble on expression in E. coli; label from the status in PepcDB or PDB records

Row | Sequence | soluble on expression in E. coli
1 | MAHHHHHHMENNNHGCNMHDDNFDLLMKKICNELKKGDKNKNGLIMYNTFIDVLDLFQIEYGSSIIDYLMKHCVVTEDGFVNYKNLWLIHDPSKTMRNNSESVEESINPKFMDIQDRYEDIDKYTQEKNEIIRKLYSQWDKCLLRDDEFKAKLINGNIDITPEFERSLYLYGPSRSLSFANVMKTLYINDSKNRKNRNNFVSKIKDEKWRKLNIDENEQQCFQDIHRNPIAWEGSNVTDADNLIQNVELISNYLRGEENVNMRKEEFISHDFFNNTVKNLIKNYISNKISESEFYLCLNKLNISVTPQLNNLIKCHELDSNGKFKDFATTINRCIPKNLLHSLQRRVQLYGAQKNDKDSKLNFSYNNCCCDRLCPNVTDDNPYSNENIDKH | not soluble
2 | MAHHHHHHMEPFTWLPAERYFHPLLNSIGAYQRYTYSLRAVCDAQRQKLLPGGDIEQNPGPIAVLQMNVSCLTPSKLATLMAQGADIIAIQETWKSSEQIASMHTGDHVLHAQSRIGKGSGVAVLVRKTLRSKRVPLTIPQHDTSLEVVVVQVALDQNRDLIVASTYMRPPPQVTQSFRRLVNCLPASSPLLLCGDFNMHHPQWEPFLESSPSEVAAEFLELCTDAGLTLVNTPGDITYARGTRERSCIDLTWSKHLTVSDCSASVSPLSDHYMLTFTLHQAFMDTIPSAPPSAPRTFYS | not soluble
3 | MAHHHHHHMEVAFTISPGERQHVEYLADLFAIILAIEKVEKATLRDIITQEQYSSTITRLLDKYKSTVTYLEQSRNPFYSTIDSFWENYGSRCPAARTRIQLSFDDAKQQQQQQQDSDVNGTVDPRLVLECGQHFITLMDSLKLQQTAVDQLYTLLADLVRGLQRLGVTDQSFFHRLTTWKEKFDTMNASDELSERDTREFAFVLECGYQAFHAYLSESSARRPKA | not soluble
4 | MAHHHHHHMEVRRIAPIGRAAVLVMKNVSGNMWAGYSDGAIRVFDHVTQKVLRQSTQHTAAVYAMCAADGYVFTGGADGKVYQWMADDLHYSHMYYGHRNAVRSLTTYTDQKSRCRYVVSGSDDGTVKVWEATVAKTSGTPRKDGGCVSTLDGQGRCVLSILVLEDAAELWAGSEDSVIRVWDLSSMTVTTVITGHRAPVVTLLKVGDTVWSGSKDGAITITNRFSKDIVHQASQPPANRSAAPGGQRSSVSILPVTRTVVYEVWATAVDGSWQCWNFTVPEGVKSYVEEADVLKGGWCPSHSRPQRLSRVGQRSSRNVRSSSVNEYSENGLHSASARARRSDEKLRASVAQTRRTVAVLLAGSKVHQGLGAHNGNGFAHRNEAASVDIVDDDDTPLDIVAESIRNDHTAETQREVQLKQAALAKERRKSAKLRAALEMMCKDPVAIAEEGAKKVFRRTDSLVIAETLAMERQSGKLGSPTTEKLVGVSSQLELLKAQNKAMAAAVTESKKVPD | soluble
5 | MAHHHHHHMFANLDEEKKARLRERILQAAAAPPPAATPARSNSDSDGEQEVPPQHTESTKHASEQLAINAQSTDIDIANIRLFTLDELDLNQLTECKTLSLRKNLIHELSAFPQHLAGRLVELDLFDNKIRKVRDFFDSAMVPDPESGSLSKKAVPHAFYSLTKLDLSYNQLRKITGLDSLGSTLKELYLVENKIKVIEGLDSFVHLELLELGGNRIREIGSGLSNLRSLQSLWLGKNKIHSIGDSLHNLRELRKLSLQANRLTSITAEAFKEGCNPYLAELYLSENGISTIENLPLHSLHLLDFSFNPISTINEAVINPTNMPELEEFWLTDGSISDWGEVKKFCGFANTLRTIYVERNPIEQDKRYRDKVYMNLPFVTQIDSWPVVNKDNLEGDRLIQRRAS | not soluble
6 | MAHHHHHHMFKTMMFKTMRNYFMLNFKRNYRHYSRKKNINNINRKMNDPYSDLYKMNYYGNNFKRLPNKKTKSNEYELIRTSSNSFTYSSPYPPNINYTLKPYPDSAKEFYYENRKYVMKYKNVEYIPIKRMVCKGMSRRSNWDTYYLRVEK | not soluble
7 | MAHHHHHHMFSRGAAATAMAKVSRLVSPRLRIIHRDYLTRRGGRTHQRCSAVAVDYTPTYFATYKSDPGQCPRLIDAEAVHGDEQAFWSARRDFYRGGASRSYYPAWDRQAQALIMLTREVPRIPQEAAFRLFTLGLKMMLLPRLVAGVELMLPSWVTMNAESVLNEGLEGKVAEADGDGKATGAAADAAALPSASSAGANEDSGSANAEKR | soluble
8 | MAHHHHHHMFYTGINEPRPTAMNFSFDGLHFVSAHTDDAVRFIDVGNMTNTDVIICDAFGVHNVRYTHSSSVVCVAPRFHLDGHLHLLNTETSQFFGEMAYLNDAESEMLPVANTPVYSTLAQCPATDVIGAVVVAKGRLALFHPLISGCIAATPERSIVGSRACVQFSRDGHRIAIGDDHRIVLLDRRSFFGAPLAVLENKHVFTTSTSLTRCKGLEFSADANRLLLTSSSGEVVVYDWLRGETVANYFHGDARRHFVGSADAIGAQHVFPYQSASPILQLTSSMTGGRHLLVYAGCPSNSAASTRQGRLLYELQSKDSDVPVAIAVNPRLQLAATAARSITWWAFHNSVVEAYATLTEAGMTAAD | not soluble
9 | MAHHHHHHMGACGSKGSTSDKGLASDKDGKNAKDRKEAWERIRQAIPREKTAEAKQRRIELFKKFDKNETGKLCYDEVHSGCLEVLKLDEFTPRVRDITKRAFDKARVLGSKLENKGSEDFVEFLEFRLMLCYIYDFFELTVMFDEIDASGNMLVDEEELKRAVPKLEAWGAKVEDPAALFKEIDKNGTGSVTFDEFAAWASAVKLDADGDPDNVPERA | soluble
10 | MAHHHHHHMGCFNSTDAVADQDPASGYMYTKPNAKGTKEALFGGLLYRITDEEEGGLAFYNNSKDYEFHIKYLFGADSELNAVGDTKLEMQDDGILAEVVVYPLETKPFVQGTIDGYETKLEALPLSEEYFALHPEIDEAAYYRRLEAPKSSRF | soluble
11 | MAHHHHHHMGCVNCKKAKRRKDHPTLEEAAARETERERWAAAEQGFAAQNLYTSVHAANSLPLTEREGATPLPATPGRLENVPQISAAAAAPGETENGRGWNSKKKSNSQATGKADNDSTAAALARVTRTAAPSESSRETPKGRRNKHQYRCHPGVSSWSDGSLPLSVDSVGSAKCPHSSSSSSSSSAQTYKSKKGAEDAKKHGSPGSITAAEIWPQENSDDSVAQGHLNSASHSQTATAWLHINGLTAAGTTSSTNARQTRQPKMYHRSSNVSSDSRSNATPPGMETKVYPSADALDDGPSDWGSTSHDVPAAIPAPNTSVESGGAAAEASSLPNRAPFEPYSDLGSRDVTDYLPPYEWAPRTLPVPSPLRACGPVDMAQWEDGENQFCGLAAAGTTARFQDPVVNVSAEGATTSNSAVAEGNYGASHPFALHTFYPRLPPAQWSSSSSDDTINGPEASAAAFDYPHLPVNAFIQKAHPHQQQPTYRAMYEGDASVRYSPAGYASHEATPRRAVPPSLVDVHVSEAVGYASPPLVNNAHSFYPSRALLPMHHSHAVPDSGSGKPMAYSHALPAMTTSAPQIYHDGNRNRSGNISIVSIGGGVHPHKPVSYLFDSSMDDWLQSRHAQPPQRQLYGESVDMW | soluble
12 | MAHHHHHHMGGPREVTLKILDAIEAELKMSFKSIVEDRSLPYVSSSDTILVFGRSSLVEYILLSRSRDPQCKPKRVIVIDSAPLFEGRQLAEKLSSAGIDVTYGLITACCTLMPKCTRVFMGASAVLQNGDMFGRCGMALVAACAKLFRKPVLCFSESYKFVPEVWVGNLAQNTKLADMRPAAEVHGSDTGTHSPLVYPTPPTLSPPQLRASGGWGTPARGADFLTRSGGGGAVPFSSSASGYLYDLTPASYIDMIICEMGCLHTSAIVAAIKDREGRDTSQLLNLVRG | not soluble
13 | MAHHHHHHMGKFVAEQYLRRGVSVTVLARDIAKAKSLFLPIADGQREQNRLASMGYRQLSSAAEKREMTASLHYRDFRRGDRHVLRYEFRNPRSVGGPSAGSANASCDQRFALELVEGDVGSTQDLEFSMRHASIVFYLTAALEEASGPALRADDRLRSSAAWWSLGSWFCGGRRFGGFLHALDACRRVDAHFVALTPLWVHGSCLSPFYWYRRLLTHPRGYCKAVQLQEQTLLSQSGSPGARCSLGADELEARQPGGDWGCWWRSRLSTEPPDDILIKSRSPVRFSLFRLSDVVFPSFNERIVASKNNRVDDDLHVTFIQQGDLDARLLANVLVKSIGLCNSVVESRIDIGGSLRGGTDMRDANAIFDLFEQLRNE | not soluble
14 | MAHHHHHHMGRNNKMRSKPSDNVAWYDKGPVEWLPRPVRLTYDQLDQLRDWMMRETIAGRTEEFNKIRHLHREWSQHPLMPVLGDVEPKFPLNLYKQNHRAKRRFLVRWHKANSPTYWMWMPRGPAVATPLHRSSPSQFPEHWKSLARTSSSSSSSGSSSAAP | soluble
15 | MAHHHHHHMGTLEAQTQGPGSMLNKVMLIGYLGDDPESKTMTSGAEVVNFRMATFESYMNKNTHQKVEKTEWHSVVVFNPHFAKIALQYLHKGSKVYIEGKLQTRKWQDKNGHDRYTTEIVLPQYKGELHLLDAKKEQSASSSSVTSQSYAIASGADDYGISAHDSMPF | soluble
16 | MAHHHHHHMGTLEAQTQGPGSMNIDAISIGSNPPEDVNVIIEVPVGGQPIKYEMDKKAGALIVDRFLYTPMTYPGNYGFVPHTLSEDGDPIDVLVCNTRPLIPGCVINVRPIGVLVMEDNSGKDEKIIAVPSPHLTRRYEKIHDYTDMPEITLKQIAHFFEHYKDLEPGKWVKIGDWGDEDYARKFIVEAIERAKGK | soluble
17 | MAHHHHHHMGTLKAIIAPSVLASNISKLAEETQRMESLGAEWIHLDVMDMHFVPNLSFGPPVINNLKKYTKSIFFDVHLMVEYPEKYVPLLKTSNQLTFHFEALNEDTERCIQLAKEIRDNNLWCGISIKPKTDVQKLVPILDTNLINTVLVMTVEPGFGGQSFMHDMMGKVSFLRKKYKNLNIQVDGGLNIETTEISASHGANIIVAGTSIFNAEDPKYVIDTMRVSVQKYLNN | soluble
18 | MAHHHHHHMGTVSPARRVASPGKGKRSPSRGETPSEGRTRRAGSSPSSRPGMQTASQRAARKKEVRRLRDAELLLDEAPLSMVGERAQDALEAMLRALDIRRNASATPKKMQPVWHHVKALVVTANREGLRRAYAAFPAEEGHYFFGKALSTLEYSASTVNTAADGGEFAECPLLLSHLMEATLNNIAFQQYIAHEPPEAILKTLQRALKVQHHQAFRTLTLYNMAVAFLAARRYEDATEFVARCSQVAEVCLELEVSLTREISSLYKEYHTMVATHAIMCHHLLAGLAAWSGESDMEVYHAQLALCCATKFLCRG | not soluble
19 | MAHHHHHHMGYMQEREEMSAMVDQRTAQLEALTSSVAEAQKKLQALDERMMALEPHGNVQATAPAGATATTSKRARAGASSVGGAWDAAGVASATKMPPEELKKKVEESIEHIFHLLRTGDQQLKLTAQNPNLRKSVDGAKVAGNASHGRSRAASLHRGPKALQSSTMQTGKMKAATGGSSYDSQRPSSGAHRSGKSTVGATTAAGAADAASQQQHHDASMGPVEMLTIIENKLEEYHRYLSDPANHVELALMKAVMKQSDKQRRRQARIIHLANQEDEQEERIRRALERSQAPIIHKIGKPFRPRSFVSKPIDEKSRRKAERAAAALNGSLDNIDSDEDGAEFFM | soluble
